{"source": "paper PMC3164876", "key": {"[1]": {"target": "SC1918/H1 (A/South Carolina/1/1918 (H1N1)) HA ectodomain (influenza A virus A/South Carolina/1/1918 (H1N1)) (UniProt Q9WFX3)", "experiment": "SPR"}, "[2]": {"target": "HB36.4 (HB36 Asp47Ser, Ala60Val, Asn64Lys), displayed on yeast", "experiment": "flow cytometry on cells"}, "[3]": {"target": "HB80 Asn36Lys, displayed on yeast", "experiment": "flow cytometry on cells"}, "[4]": {"target": "HB80 Met26Thr Asn36Lys, displayed on yeast", "experiment": "flow cytometry on cells"}, "[5]": {"target": "HB36.3 (HB36 Asp47Ser, Ala60Val), displayed on yeast", "experiment": "flow cytometry on cells"}, "[6]": {"target": "HB80.3 (HB80 Δ54–95, Asp12Gly, Ala24Ser, Met26Thr, Asn36Lys), displayed on yeast", "experiment": "flow cytometry on cells"}, "[7]": {"target": "HB80 Met26Thr, displayed on yeast", "experiment": "flow cytometry on cells"}, "[8]": {"target": "HB80 Δ54–95, Met26Thr, Asn36Lys, displayed on yeast", "experiment": "flow cytometry on cells"}, "[9]": {"target": "HB36 Asp47Ser, displayed on yeast", "experiment": "flow cytometry on cells"}}}
{"substance": "HB36.3 (HB36 Asp47Ser, Ala60Val), purified from E. coli (designed binder)", "values": [{"measurement": "Kd", "setting": "[1]", "result": 29, "unit": "nM"}]}
{"substance": "HB36.4 (HB36 Asp47Ser, Ala60Val, Asn64Lys), purified from E. coli (designed binder)", "values": [{"measurement": "Kd", "setting": "[1]", "result": 22, "unit": "nM"}]}
{"substance": "HB80.3 (HB80 Δ54–95, Asp12Gly, Ala24Ser, Met26Thr, Asn36Lys), purified from E. coli (designed binder)", "values": [{"measurement": "Kd", "setting": "[1]", "result": 38, "unit": "nM"}]}
{"substance": "SC1918/H1 (A/South Carolina/1/1918 (H1N1)) HA ectodomain (from UniProt Q9WFX3 18-529) (domain or fragment)", "values": [{"measurement": "Kd", "setting": "[2]", "result": 4, "unit": "nM"}, {"measurement": "Kd", "setting": "[3]", "result": 300, "unit": "nM"}, {"measurement": "Kd", "setting": "[4]", "result": 7.5, "unit": "nM"}, {"measurement": "Kd", "setting": "[5]", "result": 4, "unit": "nM"}, {"measurement": "Kd", "setting": "[6]", "result": 3, "unit": "nM"}, {"measurement": "Kd", "setting": "[7]", "result": 100, "unit": "nM"}, {"measurement": "Kd", "setting": "[8]", "result": 5, "unit": "nM"}, {"measurement": "Kd", "setting": "[9]", "result": 5, "unit": "nM"}]}
